{"source": "patent US20040033954A1", "about": "“Therapeutic method for combined use of modified CNTF and thiadolidinedione” (priority 2002, published 2004)", "key": {"[1]": {"conditions": "cited from earlier work"}, "C57BL/KsJ db/db mice": {"test_system": "C57BL/KsJ db/db mice", "test": "Body weight and food intake of db/db mice under daily treatment", "assay_type": "in vivo", "method": "FIG. 1 is a graph of the effect of co-administration of Axokine™ (SEQ ID NO:1) (0.1 or 0.3 mg/kg s.c.), Avandia™ (3 or 10 mg/kg/day oral gavage) , or vehicle for 12 days on body weight in C57BL/KsJ db/db mice (% change from the first day of treatment). At day 5 (arrow), two combined treatment groups were initiated receiving Avandia™ (3 mg/kg/day, oral gavage)+Axokine™ (0.1 or 0.3 mg/kg s.c.). All data represents the mean (n≧6)±SEM.\nC57BL/KsJ db/db mice were treated by daily administration of Axokine™ (SEQ ID NO:1) (0.1 or 0.3 mg/kg s.c.), Avandia™ (3 or 10 mg/kg/day oral gavage), and vehicle (vehicle) for […], and the effect on body weight determined (FIG. 1, shown as the % change from the first day of treatment). […] A combined treatment group consisted of Avandia™ (3 mg/kg/day, oral gavage) +Axokine™ (0.1 or 0.3 mg/kg s.c.) administered for the […] (arrow, FIG. 1). All data represents the mean (n>6)±SEM."}, "[2]": {"conditions": "previously found by the applicant; cited from earlier work"}, "C57Ks/J db/db male mice": {"test_system": "C57Ks/J db/db male mice", "test": "Fatty liver of db/db mice, Oil-Red O staining for neutral lipid", "assay_type": "in vivo", "conditions": "10-week-old db/db male mice; Avandia 3 or 10 mg/kg/day oral gavage for 13 days, ± Axokine 0.1 or 0.3 mg/kg/day in the last 8 days", "method": "The effects of Avandia™ administration ±Axokine™ (SEQ ID NO:1) on fatty liver of db/db mice was examined. 10-week-old C57Ks/J db/db male mice were treated for 13 days with either vehicle or Avandia™ alone (3 or 10 mg/kg/day) by oral gavage or ±Axokine™ (0.1 or 0.3 mg/kg/day) in the last 8 days. 24 hours after the last administration (day 14) all animals were anesthetized , the liver removed and rapidly frozen until it could be processed. The tissues were sectioned, mounted on glass, and stained with Oil-Red O for the detection of neutral lipid."}, "[3]": {"conditions": "daily injection 0.1 or 0.3 mg/kg s.c."}}}
{"molecule": "Cc1c(C)c2c(c(C)c1O)CCC(C)(COc1ccc(CC3SC(=O)NC3=O)cc1)O2", "note": "(stereo not shown) [troglitazone]", "values": [{"measurement": "hepatic reaction", "setting": "[1]; patients, Lebovitz et al. (2002)", "value": "idiosyncratic hepatic reaction leading to hepatic failure and death in some patients"}]}
{"molecule": "CN(CCOc1ccc(CC2SC(=O)NC2=O)cc1)c1ccccn1", "note": "(stereo not shown) [Avandia™, rosiglitazone]", "values": [{"measurement": "body weight", "setting": "[1]; Chaput et al. (2000)", "value": "increased body weight"}]}
{"molecule": "Axokine™: modified CNTF molecule (SEQ ID NO:1) with improved physical and chemical properties, which activates the CNTF receptor (protein) MAFTEHSPLTPHRRDLASRSIWLARKIRSDLTALTESYVKHQGLNKNINLDSADGMPVASTDRWSELTEAERLQENLQAYRTFHVLLARLLEDQQVHFTPTEGDFHQAIHTLLLQVAAFAYQIEELMILLEYKIPRNEADGMPINVGDGGLFEKKLWGLKVLQELSQWTVRSIHDLRFISSHQTG", "values": [{"measurement": "body weight", "setting": "C57BL/KsJ db/db mice; [3]", "value": "caused weight loss"}, {"measurement": "food intake", "setting": "C57BL/KsJ db/db mice; [3]", "value": "decreased food intake"}, {"measurement": "body weight with increasing doses, versus vehicle control groups", "setting": "C57BL/KsJ db/db mice; increasing doses, ANOVA, P<0.0001 in all cases", "value": "further reduction in body weight"}, {"measurement": "effect on food intake and body weight, blood glucose and tolerance, and serum insulin levels", "setting": "[2]", "value": "profound effect"}, {"measurement": "deposition of neutral lipid in liver (Oil-Red O staining)", "setting": "C57Ks/J db/db male mice", "value": "reduced staining with Oil Red O"}]}
